Laboratory results as given in article PMC6092121, “Structure of mouse protocadherin 15 of the stereocilia tip link in complex with LHFPL5” (eLife, 2018).

B3: LHFPL5, purified in complex with PCDH15 for cryo-EM (Strep-mCerulean removed) (natural protein, mouse (Mus musculus), UniProt Q4KL25 2-219, looked up)
chain: VKLLPAQEAAKIYHTNYVRNSRAVGVMWGTLTICFSVLVMALFIQPYWIGDSVSTPQAGYFGLFSYCVGNVLSSELICKGGPLDFSSIPSRAFKTAMFFVALAMFLIIGSIICFSLFFVCNTATVYKICAWMQLAAATGLMIGCLVYPDGWDSSEVRRMCGEQTGKYTLGHCTIRWAFMLAILSIGDALILSFLAFVLGYRQDKLLPDDYKADGNEEV
notes: called full length LHFPL5 in the text; also called TMHS; not shown: Strep, N-terminal, cleaved; mCerulean, N-terminal, cleaved

Legend:
[1] = biological target: the molecule itself; assay: AUC; sedimentation velocity, global direct boundary modelling (Lamm equation, kinetic homo-dimerization model) of samples at 2.3, 7.0 and 11.8 µM; dimer to monomers
[2] = biological target: the molecule itself; assay: AUC; sedimentation velocity, 20°C, 50,000 rpm, absorbance 280 nm, 20 mM Tris pH 8.0, 150 mM NaCl; loading concentrations 0.1-57.8 µM; sw isotherm fitted with a monomer-dimer model; dimer to monomers
[3] = biological target: B3; assay: cryo-EM structure; PCDH15_(1EC)-LHFPL5 complex co-expressed and co-purified in digitonin; C2, ~4.5 Å; details: both partners purified
[4] = biological target: the molecule itself; assay: as above
[5] = biological target: B3; assay: cryo-EM structure; PCDH15_(4EC)-LHFPL5 complex co-expressed and co-purified in digitonin with 1 mM CaCl2; Volta phase plate; straight conformation, C2, ~11.3 Å; domains fitted as rigid bodies; details: both partners purified
[6] = biological target: the molecule itself; assay: as above

B1: PCDH15 EC11-ELAUC (domain or fragment, mouse (Mus musculus), UniProt Q99PJ1 27-30, looked up)
chain: QYDDHPPVFQKKFYIGGVSEDARMFASVLRVKATDRDTGNYSAMAYRLIIPPIKEGKEGFVVETYTGLIKTAMLFHNMRRSYFKFQVIATDDYGKGLSGKADVLVSVVNQLDMQVIVSNVPPTLVEKKIEDLTEILDRYVQEQIPGAKVVVESIGARRHGDAYSLEDYSKCDLTVYAIDPQTNRAIDRNELFKFLDGKLLDINKDFQPYYGEGGRILEIRTPEAVTSIKKRGESLGYTEG
modifications: treated with PNGase
notes: signal peptide in the construct; also called protocadherin 15; source: HEK293S GnTI- cells, BacMam, secreted, purified (TALON, PNGase treatment, SEC; no thrombin digestion); not shown: 8xHis, C-terminal, kept
Kd [1]: 6.64 µM
koff [1]: 0.00035 s⁻¹
Kd [2]: 5.7 µM
stoichiometry N [2]: 2

B2: PCDH15_(1EC) (EC11 to CR), purified in complex with LHFPL5 for cryo-EM (domain or fragment, mouse (Mus musculus), UniProt Q99PJ1 27-30, looked up)
chain: QYDDHPPVFQKKFYIGGVSEDARMFASVLRVKATDRDTGNYSAMAYRLIIPPIKEGKEGFVVETYTGLIKTAMLFHNMRRSYFKFQVIATDDYGKGLSGKADVLVSVVNQLDMQVIVSNVPPTLVEKKIEDLTEILDRYVQEQIPGAKVVVESIGARRHGDAYSLEDYSKCDLTVYAIDPQTNRAIDRNELFKFLDGKLLDINKDFQPYYGEGGRILEIRTPEAVTSIKKRGESLGYTEGALLALAFIIILCCIPAILVVLVSYRQFKVRQAECTKTARIQSAMPAAKPAAPVPAAPAPPPPPPPPPPGAHLYEELGESAMH
notes: signal peptide in the construct; source: HEK293 tsa201 (suspension), BacMam co-infection with LHFPL5, purified (Strep-Tactin, TALON, thrombin, SEC in digitonin); not shown: mVenus, C-terminal, cleaved; 8xHis, C-terminal, cleaved
binding result [3]: binds
stoichiometry N [4]: 2

B3
stoichiometry N [4]: 2

B4: PCDH15_(4EC), purified in complex with LHFPL5 for cryo-EM (domain or fragment, mouse (Mus musculus), UniProt Q99PJ1 27-30, looked up)
chain: QYDDSPVFTNSTYTVVVEENLPAGTSFLQIEAKDVDLGANVSYRIRSPEVKHLFALHPFTGELSLLRSLDYEAFPDQEASITFLVEAFDIYGTMPPGIATVTVIVKDMNDYPPVFSKRIYKGMVAPDAVKGTPITTVYAEDADPPGMPASRVRYRVDDVQFPYPASIFDVEEDSGRVVTRVNLNEEPTTIFKLVVVAFDDGEPVMSSSATVRILVLHPGEIPRFTQEEYRPPPVSELAARGTVVGVISAAAINQSIVYSIVAGNEEDKFGINNVTGVIYVNSPLDYETRTSYVLRVQADSLEVVLANLRVPSKSNTAKVYIEIQDENDHPPVFQKKFYIGGVSEDARMFASVLRVKATDRDTGNYSAMAYRLIIPPIKEGKEGFVVETYTGLIKTAMLFHNMRRSYFKFQVIATDDYGKGLSGKADVLVSVVNQLDMQVIVSNVPPTLVEKKIEDLTEILDRYVQEQIPGAKVVVESIGARRHGDAYSLEDYSKCDLTVYAIDPQTNRAIDRNELFKFLDGKLLDINKDFQPYYGEGGRILEIRTPEAVTSIKKRGESLGYTEGALLALAFIIILCCIPAILVVLVSYRQFKVRQAECTKTARIQSAMPAAKPAAPVPAAPAPPPPPPPPPPGAHLYEELGESAMH
modifications: N-linked glycosylation (predicted sites; density at EC10 and EC11)
notes: signal peptide in the construct; the tag may have stayed on; not shown: mVenus, C-terminal, cleaved; 8xHis, C-terminal, cleaved
binding result [5]: binds
binding result [6]: binds
